The values below come from patent US20240228562A1, “NOVEL LIPOCALIN MUTEINS SPECIFIC FOR CONNECTIVE TISSUE GROWTH FACTOR (CTGF)” (PIERIS PHARMACEUTICALS GMBH, priority 2021, published 2024).

Experiment [1] has as its target T1, human CTGF (Homo sapiens, UniProt P29279).
T1 construct: purchased Creative Biomart
The experiment is described as follows: SPR binding kinetics and affinity, human CTGF. The note with it: 25° C., 1:1 binding model. The essentials:
(§1)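 Biacore SPR at 25 °C; CTGF either Fc-captured via anti-human IgG (HBS-EP+) or amine-coupled to CM5 (300–1100 RU). Muteins injected 180 s contact, 900–3600 s dissociation, 30 μL/min.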

Experiment [2] concerns the target T2, human CTGF (Homo sapiens, UniProt P29279, H83D).
T2 construct: purchased Creative Biomart
Put plainly: SPR binding kinetics and affinity, human CTGF. The note with it: 25° C., 1:1 binding model. A digest of the protocol: as §1
On the technique in general: In SPR one partner is held on a chip, and binding of the other changes the refractive index at the surface.

Experiment [3] deals with T3, Rat CTGF (Rattus norvegicus, UniProt Q9R1E9).
T3 construct: purchased R&D Systems
T3 sequence (Q9R1E9 25-347): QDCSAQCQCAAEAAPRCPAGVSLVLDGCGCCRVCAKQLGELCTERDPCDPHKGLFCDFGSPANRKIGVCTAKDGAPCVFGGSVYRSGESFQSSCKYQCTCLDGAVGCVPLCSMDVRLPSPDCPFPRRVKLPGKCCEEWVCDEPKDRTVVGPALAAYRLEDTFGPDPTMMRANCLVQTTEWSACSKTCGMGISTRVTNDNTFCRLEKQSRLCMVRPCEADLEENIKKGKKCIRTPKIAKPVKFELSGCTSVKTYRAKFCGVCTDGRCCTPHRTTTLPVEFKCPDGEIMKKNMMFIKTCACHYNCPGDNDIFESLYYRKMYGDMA
Put plainly: SPR binding kinetics and affinity, rat CTGF. The note with it: 25° C., 1:1 binding model. The essentials: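 Targets either amine-coupled to CM5 chip (300–1100 RU; Fc-tagged human, untagged rat/murine) or Fc-captured via anti-human IgG; muteins injected 180 s contact, 900–3600 s dissociation, 30 μL/min, 25° C. Double-referenced sensorgrams fit to 1:1 model giving kon, koff and KD.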

The target of experiment [4] is T4, huCYR61 (Homo sapiens, UniProt O00622).
T4 sequence (O00622 25-381): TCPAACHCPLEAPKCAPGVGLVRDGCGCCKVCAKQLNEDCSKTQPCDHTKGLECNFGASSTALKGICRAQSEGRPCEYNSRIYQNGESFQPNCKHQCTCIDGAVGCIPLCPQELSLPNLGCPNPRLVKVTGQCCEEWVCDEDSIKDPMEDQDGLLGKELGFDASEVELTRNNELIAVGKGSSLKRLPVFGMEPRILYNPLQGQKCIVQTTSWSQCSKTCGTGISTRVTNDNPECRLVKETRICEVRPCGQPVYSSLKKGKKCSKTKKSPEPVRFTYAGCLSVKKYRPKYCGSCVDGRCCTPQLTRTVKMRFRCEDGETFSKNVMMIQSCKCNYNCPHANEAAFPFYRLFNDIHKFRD
The experiment is described as follows: Specificity ELISA (CCN proteins), huCYR61. It is filed as binding. The note with it: coated 1 μg/ml; assessed when human CTGF signal approached saturation. How it is done: (§2) Binding of muteins to closely related proteins of CTGF was tested by an ELISA assay. In detail, a 384-well plate suitable for fluorescence measurements (Greiner FLUOTRAC™ 600, black flat bottom, high-binding) was coated with 20 μl of human CTGF or the other members of the CCN protein family at a concentration of 1 μg/ml in PBS over night at 4° C. After washing with PBS with 0.05% Tween 20, wells were blocked with 100 μl blocking buffer containing 0.1% Tween 20 and 2% BSA (PBS-T/BSA) for 1 h at room temperature. 20 μl of serially diluted muteins starting at 1000 nM were incubated in PBS-T/BSA for 1 h at room temperature (RT).
(§3) The residual supernatants were discarded and 20 μl HRP-labeled anti-NGAL or anti-Strep-Tag antibody was added at a predetermined optimal concentration in PBS-T/BSA and incubated for 1 h at RT. After washing, 20 μl fluorogenic HRP substrate (QuantaBlu, Thermo) was added to each well, and the reaction was allowed to proceed for 2 to 60 minutes. The fluorescence intensity of every well on the plate was read using a fluorescence microplate reader (Tecan). When the signal for human CTGF approached saturation, the cross reactivity to the other proteins was assessed.

Experiment [5] concerns the target T5, huWISP-3 (Homo sapiens, UniProt O95389).
T5 sequence (O95389 24-354): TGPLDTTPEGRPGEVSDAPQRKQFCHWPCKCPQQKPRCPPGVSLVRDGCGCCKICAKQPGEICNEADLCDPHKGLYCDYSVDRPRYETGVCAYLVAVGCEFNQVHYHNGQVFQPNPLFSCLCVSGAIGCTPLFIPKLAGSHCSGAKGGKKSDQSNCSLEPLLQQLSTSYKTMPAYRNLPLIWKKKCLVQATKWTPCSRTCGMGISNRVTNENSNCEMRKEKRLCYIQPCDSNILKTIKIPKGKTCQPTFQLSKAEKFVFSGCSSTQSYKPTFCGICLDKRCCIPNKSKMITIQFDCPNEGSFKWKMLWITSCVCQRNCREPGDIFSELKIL
Put plainly: Specificity ELISA (CCN proteins), huWISP-3. The note with it: coated 1 μg/ml; assessed when human CTGF signal approached saturation. It is filed as binding. On the procedure:
as §2, §3

T1 sequence (P29279 with tags, fused parts or gaps H83D): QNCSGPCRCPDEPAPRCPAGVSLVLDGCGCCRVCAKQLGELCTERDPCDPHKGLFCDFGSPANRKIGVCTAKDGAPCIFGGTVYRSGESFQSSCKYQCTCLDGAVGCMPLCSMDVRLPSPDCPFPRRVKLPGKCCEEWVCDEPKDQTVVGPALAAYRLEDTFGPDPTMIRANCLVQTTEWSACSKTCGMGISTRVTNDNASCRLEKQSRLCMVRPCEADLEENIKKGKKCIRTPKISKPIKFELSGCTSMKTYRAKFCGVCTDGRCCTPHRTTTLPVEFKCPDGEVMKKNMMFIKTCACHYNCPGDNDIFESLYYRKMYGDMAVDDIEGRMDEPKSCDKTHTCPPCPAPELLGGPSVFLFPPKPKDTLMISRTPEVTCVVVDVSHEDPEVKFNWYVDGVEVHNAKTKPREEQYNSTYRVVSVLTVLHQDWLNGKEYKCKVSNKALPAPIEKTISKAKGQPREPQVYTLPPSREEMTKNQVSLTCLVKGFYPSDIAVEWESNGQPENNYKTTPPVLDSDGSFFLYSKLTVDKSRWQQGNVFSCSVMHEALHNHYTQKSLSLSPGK
T2 sequence (P29279 with tags, fused parts or gaps H83D): as above

B1: SEQ ID NO: 29: parent CTGF-binding hNGAL lipocalin mutein (protein)
chain: QDSTSDLIPAPPLSKVPLQQNFQDNQFHGKWYVVGWAGNIKLREDKDPFKMSATIYELKEDKSYNVTEVVFEQKKCHYIIKTFVPGSQPGEFTLGDIKSPPGETSSLVRVVSTNYNQHAMVFFKKVFQNREFFWITLYGRTKELTSELKENFIRFSKSLGLPENHIVFPVPIDQCIDG
modifications: lipocalin mutein
As a reminder, the Kd is the constant that tells how readily two partners part at equilibrium. As to B1, the “human CTGF koff” value in experiment [1] was 0.00112 s⁻¹. Besides, in experiment [2], the Kd is 11.2 nM and the “human CTGF kon” value was found to be 100000 M⁻¹ s⁻¹. Moreover, in experiment [3], the equilibrium dissociation constant (Kd) stood at 18 nM, the “Rat CTGF koff” value turned out to be 0.00317 s⁻¹ and the “Rat CTGF kon” value is 176000 M⁻¹ s⁻¹. In addition, the “ELISA binding to huCYR61” value in experiment [4] is “No binding”. Moreover, in experiment [5], the “ELISA binding to huWISP-3” value is “No binding”.

B2: SEQ ID NO: 25: parent CTGF-binding hNGAL lipocalin mutein (protein)
chain: QDSTSDLIPAPPLSKVPLQQNFQDNQFHGKWYVVGMAGNFRLREDKDPSKMGATIYELKEDKSYNVTQVQFDDKKCLYVIETFVPGSQPGEFTLGAIKSFPGFTSQLVRVVSTNYNQHAMVFFKKVYQNREVFWITLYGRTKELTSELKENFIRFSKSLGLPENHIVFPVPIDQCIDG
modifications: lipocalin mutein
As for B2, in experiment [1], the “human CTGF koff” value came out at 0.000248 s⁻¹. Further, in experiment [2], the affinity, expressed as Kd, was 9.27 nM and the “human CTGF kon” value came out at 26800 M⁻¹ s⁻¹. In addition, in experiment [3], the Kd stood at 27.7 nM, the “Rat CTGF koff” value was found to be 0.00129 s⁻¹ and the “Rat CTGF kon” value turned out to be 46500 M⁻¹ s⁻¹. For the same molecule, in experiment [4], the “ELISA binding to huCYR61” value is on record as “No binding”. In addition, in experiment [5], the “ELISA binding to huWISP-3” value is “No binding”.

B3: SEQ ID NO: 3: parent CTGF-binding hNGAL lipocalin mutein (protein)
chain: QDSTSDLIPAPPLSKVPLQQNFQDNQFHGKWYVVGRAGNNRLREDKDPPKMWATIYELKEDKSYNVTHVHFMTKKCRYIIDTFVPGSQPGEFTLGAIKSGPGMTSPLVRIVSTNYNQHAMVFFKWVNQNREWFTITLYGRTKELTSELKENFIRFSKSLGLPENHIVFPVPIDQCIDG
modifications: lipocalin mutein
B3: the “human CTGF koff” value in experiment [1] worked out at 0.00749 s⁻¹. In experiment [2], binding was put at a Kd of 37.5 nM and the “human CTGF kon” value came to 200000 M⁻¹ s⁻¹. Moreover, in experiment [3], the Kd was determined as 39.3 nM, the “Rat CTGF koff” value stood at 0.0117 s⁻¹ and the “Rat CTGF kon” value worked out at 297000 M⁻¹ s⁻¹. In addition, in experiment [4], the “ELISA binding to huCYR61” value is reported as “No binding”. Further, the “ELISA binding to huWISP-3” value in experiment [5] is on record as “No binding”.

B4: SEQ ID NO: 7: parent CTGF-binding hNGAL lipocalin mutein (protein)
chain: QDSTSDLIPAPPLSKVPLQQNFQDNQFHGKWYVVGLAGNYGLRTDKRPSKMFATIYELKEDKSYDVTSVRFEQERCHYTIRTFVPGSQPGEFTTGSIKSRPGQTSSLVRVVSTNYNQHAMVFFKSVIQNREYFAITLYGRTKELTSELKENFIRFSKSLGLPENHIVFPVPIDQCIDG
modifications: lipocalin mutein
With B4, in experiment [1], the “human CTGF koff” value stood at 0.00587 s⁻¹. In experiment [2], the affinity, expressed as Kd, was 60.2 nM and the “human CTGF kon” value is 97600 M⁻¹ s⁻¹. In experiment [3], the Kd came to 62.8 nM, the “Rat CTGF koff” value was found to be 0.00754 s⁻¹ and the “Rat CTGF kon” value was found to be 120000 M⁻¹ s⁻¹. In addition, the “ELISA binding to huCYR61” value in experiment [4] is on record as “No binding”. Also, in experiment [5], the “ELISA binding to huWISP-3” value is given as “No binding”.

B5: SEQ ID NO: 74: fusion protein comprising two CTGF-binding lipocalin muteins (protein)
chain: QDSTSDLIPAPPLSKVPLQQNFQDNQFQGKWYVVGLAGNAILREDKQPAKMFATIYELKEDKSYDVTSVRFEAKSCKYTIKTFVPGSQPGEFTAGYIKSAPGQTSTLVRVVSTNYNQHAMVFFKHVTQNREIFVITLYGRTKELTSELKENFIRFSKSLGLPENHIVFPVPIDQCIDGGGGGSGGGGSGGGGSQDSTSDLIPAPPLSKVPLQQNFQDNQFQGKWYVVGWAGNVKLREDKQPQKMSATIYELKEDKSYDVTEVVFEQKKCHYIIKTFVPGSQPGEFTAGDIKSPPGYTSSLVRVVSTNYNQHAMVFFKKVSQNREFFWITLYGRTKELTSELKENFIRFSKSLGLPENHIVFPVPIDQCIDG
modifications: fusion protein
On to B5, for which the “ELISA binding to huCYR61” value in experiment [4] was “No binding”. Moreover, the “ELISA binding to huWISP-3” value in experiment [5] was “No binding”.

B6: SEQ ID NO: 23: optimized CTGF-binding hNGAL lipocalin mutein (protein)
chain: QDSTSDLIPAPPLSKVPLQQNFQDNQFQGKWYVVGVAGNAILRPDKQPAKMFATIYELKEDKSYDVTSVRFEAKSCKYTIKTFVPGSQPGEFTSGQIKSAPGQTSTLVRVVSTNYNQHAMVFFKHVSQNREIFVITLYGRTKELTSELKENFIRFSKSLGLPENHIVFPVPIDQCIDG
modifications: lipocalin mutein
Regarding B6, the “human CTGF koff” value in experiment [1] stood at 9.42e-06 s⁻¹. In experiment [2], the “human CTGF kon” value was 122000 M⁻¹ s⁻¹. For the same molecule, in experiment [4], the “ELISA binding to huCYR61” value is “No binding”. The “ELISA binding to huWISP-3” value in experiment [5] is on record as “No binding”.

B7: SEQ ID NO: 9: parent CTGF-binding hNGAL lipocalin mutein (protein)
chain: QDSTSDLIPAPPLSKVPLQQNFQDNQFHGKWYVVGLAGNKILRIDKQPAKMFATIYELKEDKSYDVTSVRFEARSCSYTIKTFVPGSQPGEFTAGNIKSAPGQTSTLVRVVSTNYNQHAMVFFKHVSQNRETFVITLYGRTKELTSELKENFIRFSKSLGLPENHIVFPVPIDQCIDG
modifications: lipocalin mutein
Consider B7, for which the “human CTGF koff” value in experiment [1] was 0.00102 s⁻¹. Also, in experiment [2], the Kd amounted to 12.8 nM and the “human CTGF kon” value turned out to be 79800 M⁻¹ s⁻¹. Moreover, in experiment [3], the Kd was 16 nM, the “Rat CTGF koff” value was determined as 0.00169 s⁻¹ and the “Rat CTGF kon” value turned out to be 105000 M⁻¹ s⁻¹. Besides, the “ELISA binding to huCYR61” value in experiment [4] is “No binding”. Moreover, the “ELISA binding to huWISP-3” value in experiment [5] is given as “No binding”.

B8: SEQ ID NO: 15: optimized CTGF-binding hNGAL lipocalin mutein (protein)
chain: QDSTSDLIPAPPLSKVPLQQNFQDNQFQGKWYVVGLAGNAILREDKQPAKMFATIYELKEDKSYDVTSVRFEAKSCKYTIKTFVPGSQPGEFTAGYIKSAPGQTSTLVRVVSTNYNQHAMVFFKHVTQNREIFVITLYGRTKELTSELKENFIRFSKSLGLPENHIVFPVPIDQCIDG
modifications: lipocalin mutein
For the molecule B8, in experiment [1], the “human CTGF koff” value came to 4.47e-05 s⁻¹. In addition, the “human CTGF kon” value in experiment [2] worked out at 81700 M⁻¹ s⁻¹. Further, in experiment [3], the “Rat CTGF koff” value turned out to be 0.000114 s⁻¹ and the “Rat CTGF kon” value was found to be 120000 M⁻¹ s⁻¹. Further, the “ELISA binding to huCYR61” value in experiment [4] is “No binding”. In addition, the “ELISA binding to huWISP-3” value in experiment [5] is on record as “No binding”.
